Experimental data reported in publication PMC12263435, “Mechanistic basis for PYROXD1-mediated protection of the human tRNA ligase complex against oxidative inactivation” (Nature Structural & Molecular Biology, 2025).

T1: RTCB–PYROXD1 complex (Homo sapiens, UniProt Q8WU10)
T1 construct: PYROXD1 (GST cut, E. coli) with RTCB (N-terminal tag cut by TEV, Sf9); 1:1 complex with Mg2+ in RTCB; with RNA-splicing ligase RtcB homolog
T1 sequence (Q8WU10 1-500): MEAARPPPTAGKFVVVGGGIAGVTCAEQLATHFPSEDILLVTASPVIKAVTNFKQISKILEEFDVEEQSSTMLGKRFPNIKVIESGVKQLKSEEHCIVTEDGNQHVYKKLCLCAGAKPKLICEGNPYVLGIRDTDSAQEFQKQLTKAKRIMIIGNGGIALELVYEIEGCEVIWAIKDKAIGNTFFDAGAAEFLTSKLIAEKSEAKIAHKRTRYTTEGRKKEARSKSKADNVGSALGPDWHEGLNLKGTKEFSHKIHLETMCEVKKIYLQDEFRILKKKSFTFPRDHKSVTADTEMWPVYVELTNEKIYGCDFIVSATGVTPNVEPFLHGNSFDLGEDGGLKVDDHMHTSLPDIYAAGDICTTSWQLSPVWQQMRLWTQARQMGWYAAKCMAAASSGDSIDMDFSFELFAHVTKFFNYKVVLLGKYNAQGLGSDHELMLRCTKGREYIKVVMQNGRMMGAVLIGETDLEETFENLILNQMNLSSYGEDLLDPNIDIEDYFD
T1 sequence (Q9Y3I0 1-505 partner): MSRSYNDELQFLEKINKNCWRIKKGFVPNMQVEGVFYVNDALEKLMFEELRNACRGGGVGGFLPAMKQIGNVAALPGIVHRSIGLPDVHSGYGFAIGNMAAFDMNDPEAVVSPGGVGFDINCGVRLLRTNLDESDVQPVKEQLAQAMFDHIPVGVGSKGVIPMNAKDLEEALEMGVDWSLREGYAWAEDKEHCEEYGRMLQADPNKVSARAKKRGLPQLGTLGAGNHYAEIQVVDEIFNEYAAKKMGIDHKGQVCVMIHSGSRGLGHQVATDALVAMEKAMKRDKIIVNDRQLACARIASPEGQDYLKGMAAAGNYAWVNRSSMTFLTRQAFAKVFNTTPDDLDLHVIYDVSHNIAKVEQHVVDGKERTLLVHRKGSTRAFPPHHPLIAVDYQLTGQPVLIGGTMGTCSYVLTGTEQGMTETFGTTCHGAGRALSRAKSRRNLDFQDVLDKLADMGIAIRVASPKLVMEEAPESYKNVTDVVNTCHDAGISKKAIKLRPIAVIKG

T2: StrepII–GFP–RTCB (human, UniProt Q9Y3I0 1-505)
T2 construct: human RTCB (UniProt Q9Y3I0), catalytic subunit of the tRNA ligase complex; inserted into the 438-Rgfp plasmid; a TEV site lies between GFP and RTCB; In the dissociation assay it is called 2× StrepII–GFP–RTCB; also called immobilized RTCB; 2× StrepII–GFP–RTCB; source: Sf9 insect cells (baculovirus), purified (Strep-Tactin, SEC); not shown: StrepII, N-terminal, kept; super folder green fluorescent …
T2 sequence: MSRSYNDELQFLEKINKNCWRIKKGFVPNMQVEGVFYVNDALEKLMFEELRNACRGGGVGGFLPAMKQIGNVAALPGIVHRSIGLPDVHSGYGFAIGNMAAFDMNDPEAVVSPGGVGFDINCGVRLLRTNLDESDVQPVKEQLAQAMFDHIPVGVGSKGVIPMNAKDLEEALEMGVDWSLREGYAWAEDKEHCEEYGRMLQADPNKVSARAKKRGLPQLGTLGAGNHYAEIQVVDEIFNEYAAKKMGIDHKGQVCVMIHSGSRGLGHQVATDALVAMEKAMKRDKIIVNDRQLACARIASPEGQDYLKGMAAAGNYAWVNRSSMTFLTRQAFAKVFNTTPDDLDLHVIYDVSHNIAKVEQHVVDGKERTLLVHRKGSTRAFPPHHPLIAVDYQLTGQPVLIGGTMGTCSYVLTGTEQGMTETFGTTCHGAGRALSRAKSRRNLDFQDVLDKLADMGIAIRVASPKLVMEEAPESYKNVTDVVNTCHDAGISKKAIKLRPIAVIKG


Legend:
RTCB–PYROXD1 complex = target: T1, RTCB–PYROXD1 complex; assay: cryo-EM structure, […] Å; assay type: binding; conditions: prepared with 0.5 mM NADH, 5 mM MgCl2, pH 8.0, redox state NAD+ inferred (charge-transfer complex), PYROXD1 active site
StrepII–GFP–RTCB = target: T2, StrepII–GFP–RTCB; assay: pull-down; StrepII–GFP–RTCB (0.2 nmol) immobilised on MagStrep type 3 XT beads, 0.4 nmol PYROXD1; HEPES pH 8.0, 150 mM KCl, 0.1% Tween-20, 1 mM TCEP, 0.5 mM NADH, 2.5 mM MgCl2, 2.5 mM MnCl2; 30 min at 4 °C; SDS–PAGE, Coomassie Blue; conditions: both partners purified
purified protein = substrate: NC(=O)C1=CN([C@@H]2O[C@H](COP(=O)(O)OP(=O)(O)OC[C@H]3O[C@@H](n4cnc5c(N)ncnc54)[C@H](O)[C@@H]3O)[C@@H](O)[C@H]2O)C=CC1; assay: purified protein; assay type: biochemical, Homo sapiens; conditions: aerobic (O2 as acceptor), 20 mM Tris-HCl pH 8.0, 150 mM KCl, 0.05% Tween-20, 22 °C, text prints W293A, figure legend W239A

| Molecule | binding result (StrepII–GFP–RTCB) | also measured |
| --- | --- | --- |
| Cc1cc2c(cc1C)N(C[C@H](O)[C@H](O)[C@H](O)COP(=O)(O)OP(=O)(O)OC[C@H]1O[C@@H](n3cnc4c(N)ncnc43)[C@H](O)[C@@H]1O)c1[nH]c(=O)[nH]c(=O)c1N2 [FADH^−] | – | cryo-EM structure, 3.3 Å (RTCB–PYROXD1 complex; redox state FADH- inferred): PYROXD1 coordinates FADH^− with residues including Gly18, Ala21, Thr42, Ala43 |
| NC(=O)c1ccc[n+]([C@@H]2O[C@H](COP(=O)(O)OP(=O)(O)OC[C@H]3O[C@@H](n4cnc5c(N)ncnc54)[C@H](O)[C@@H]3O)[C@@H](O)[C@H]2O)c1 [NAD^+] | – | cryo-EM structure, 3.3 Å (RTCB–PYROXD1 complex): NAD^+ interacts with residues Gly157, Ile158, Arg374, His410 and Thr412 |
| PYROXD1 ∆500 (domain or fragment, human, UniProt Q8WU10 1-499, looked up, human PYROXD1 (UniProt Q8WU10), C-terminal truncation ∆500 (lacks the C-terminal residue Asp500); source: E. coli BL21(DE3), purified (Glutathione Sepharose, 3C cleavage, SEC); not shown: GST, N-terminal, cleaved) MEAARPPPTAGKFVVVGGGIAGVTCAEQLATHFPSEDILLVTASPVIKAVTNFKQISKILEEFDVEEQSSTMLGKRFPNIKVIESGVKQLKSEEHCIVTEDGNQHVYKKLCLCAGAKPKLICEGNPYVLGIRDTDSAQEFQKQLTKAKRIMIIGNGGIALELVYEIEGCEVIWAIKDKAIGNTFFDAGAAEFLTSKLIAEKSEAKIAHKRTRYTTEGRKKEARSKSKADNVGSALGPDWHEGLNLKGTKEFSHKIHLETMCEVKKIYLQDEFRILKKKSFTFPRDHKSVTADTEMWPVYVELTNEKIYGCDFIVSATGVTPNVEPFLHGNSFDLGEDGGLKVDDHMHTSLPDIYAAGDICTTSWQLSPVWQQMRLWTQARQMGWYAAKCMAAASSGDSIDMDFSFELFAHVTKFFNYKVVLLGKYNAQGLGSDHELMLRCTKGREYIKVVMQNGRMMGAVLIGETDLEETFENLILNQMNLSSYGEDLLDPNIDIEDYF | binds | – |
| PYROXD1 ∆E496 (enzyme, human, source: E. coli BL21(DE3), purified (Glutathione Sepharose, 3C cleavage, SEC); not shown: GST, N-terminal, cleaved) MEAARPPPTAGKFVVVGGGIAGVTCAEQLATHFPSEDILLVTASPVIKAVTNFKQISKILEEFDVEEQSSTMLGKRFPNIKVIESGVKQLKSEEHCIVTEDGNQHVYKKLCLCAGAKPKLICEGNPYVLGIRDTDSAQEFQKQLTKAKRIMIIGNGGIALELVYEIEGCEVIWAIKDKAIGNTFFDAGAAEFLTSKLIAEKSEAKIAHKRTRYTTEGRKKEARSKSKADNVGSALGPDWHEGLNLKGTKEFSHKIHLETMCEVKKIYLQDEFRILKKKSFTFPRDHKSVTADTEMWPVYVELTNEKIYGCDFIVSATGVTPNVEPFLHGNSFDLGEDGGLKVDDHMHTSLPDIYAAGDICTTSWQLSPVWQQMRLWTQARQMGWYAAKCMAAASSGDSIDMDFSFELFAHVTKFFNYKVVLLGKYNAQGLGSDHELMLRCTKGREYIKVVMQNGRMMGAVLIGETDLEETFENLILNQMNLSSYGEDLLDPNIDIDYFD | binds | – |
| PYROXD1 D497A (enzyme, human, human PYROXD1 (UniProt Q8WU10) with D497A; source: E. coli BL21(DE3), purified (Glutathione Sepharose, 3C cleavage, SEC); not shown: GST, N-terminal, cleaved) MEAARPPPTAGKFVVVGGGIAGVTCAEQLATHFPSEDILLVTASPVIKAVTNFKQISKILEEFDVEEQSSTMLGKRFPNIKVIESGVKQLKSEEHCIVTEDGNQHVYKKLCLCAGAKPKLICEGNPYVLGIRDTDSAQEFQKQLTKAKRIMIIGNGGIALELVYEIEGCEVIWAIKDKAIGNTFFDAGAAEFLTSKLIAEKSEAKIAHKRTRYTTEGRKKEARSKSKADNVGSALGPDWHEGLNLKGTKEFSHKIHLETMCEVKKIYLQDEFRILKKKSFTFPRDHKSVTADTEMWPVYVELTNEKIYGCDFIVSATGVTPNVEPFLHGNSFDLGEDGGLKVDDHMHTSLPDIYAAGDICTTSWQLSPVWQQMRLWTQARQMGWYAAKCMAAASSGDSIDMDFSFELFAHVTKFFNYKVVLLGKYNAQGLGSDHELMLRCTKGREYIKVVMQNGRMMGAVLIGETDLEETFENLILNQMNLSSYGEDLLDPNIDIEAYFD | binds | – |
| PYROXD1 (Homo sapiens; W239A) (protein, full-length from HeLa cDNA, N-terminal GST cut off with 3C protease; E. coli BL21(DE3); FAD-containing) MEAARPPPTAGKFVVVGGGIAGVTCAEQLATHFPSEDILLVTASPVIKAVTNFKQISKILEEFDVEEQSSTMLGKRFPNIKVIESGVKQLKSEEHCIVTEDGNQHVYKKLCLCAGAKPKLICEGNPYVLGIRDTDSAQEFQKQLTKAKRIMIIGNGGIALELVYEIEGCEVIWAIKDKAIGNTFFDAGAAEFLTSKLIAEKSEAKIAHKRTRYTTEGRKKEARSKSKADNVGSALGPDAHEGLNLKGTKEFSHKIHLETMCEVKKIYLQDEFRILKKKSFTFPRDHKSVTADTEMWPVYVELTNEKIYGCDFIVSATGVTPNVEPFLHGNSFDLGEDGGLKVDDHMHTSLPDIYAAGDICTTSWQLSPVWQQMRLWTQARQMGWYAAKCMAAASSGDSIDMDFSFELFAHVTKFFNYKVVLLGKYNAQGLGSDHELMLRCTKGREYIKVVMQNGRMMGAVLIGETDLEETFENLILNQMNLSSYGEDLLDPNIDIEDYFD | – | Km (purified protein): 1472.1 ± 105.0 µM |
| PYROXD1 Y498A (enzyme, human, human PYROXD1 (UniProt Q8WU10) with Y498A; source: E. coli BL21(DE3), purified (Glutathione Sepharose, 3C cleavage, SEC); not shown: GST, N-terminal, cleaved) MEAARPPPTAGKFVVVGGGIAGVTCAEQLATHFPSEDILLVTASPVIKAVTNFKQISKILEEFDVEEQSSTMLGKRFPNIKVIESGVKQLKSEEHCIVTEDGNQHVYKKLCLCAGAKPKLICEGNPYVLGIRDTDSAQEFQKQLTKAKRIMIIGNGGIALELVYEIEGCEVIWAIKDKAIGNTFFDAGAAEFLTSKLIAEKSEAKIAHKRTRYTTEGRKKEARSKSKADNVGSALGPDWHEGLNLKGTKEFSHKIHLETMCEVKKIYLQDEFRILKKKSFTFPRDHKSVTADTEMWPVYVELTNEKIYGCDFIVSATGVTPNVEPFLHGNSFDLGEDGGLKVDDHMHTSLPDIYAAGDICTTSWQLSPVWQQMRLWTQARQMGWYAAKCMAAASSGDSIDMDFSFELFAHVTKFFNYKVVLLGKYNAQGLGSDHELMLRCTKGREYIKVVMQNGRMMGAVLIGETDLEETFENLILNQMNLSSYGEDLLDPNIDIEDAFD | binds | – |
| PYROXD1 D500A (enzyme, human, human PYROXD1 (UniProt Q8WU10) with D500A; source: E. coli BL21(DE3), purified (Glutathione Sepharose, 3C cleavage, SEC); not shown: GST, N-terminal, cleaved) MEAARPPPTAGKFVVVGGGIAGVTCAEQLATHFPSEDILLVTASPVIKAVTNFKQISKILEEFDVEEQSSTMLGKRFPNIKVIESGVKQLKSEEHCIVTEDGNQHVYKKLCLCAGAKPKLICEGNPYVLGIRDTDSAQEFQKQLTKAKRIMIIGNGGIALELVYEIEGCEVIWAIKDKAIGNTFFDAGAAEFLTSKLIAEKSEAKIAHKRTRYTTEGRKKEARSKSKADNVGSALGPDWHEGLNLKGTKEFSHKIHLETMCEVKKIYLQDEFRILKKKSFTFPRDHKSVTADTEMWPVYVELTNEKIYGCDFIVSATGVTPNVEPFLHGNSFDLGEDGGLKVDDHMHTSLPDIYAAGDICTTSWQLSPVWQQMRLWTQARQMGWYAAKCMAAASSGDSIDMDFSFELFAHVTKFFNYKVVLLGKYNAQGLGSDHELMLRCTKGREYIKVVMQNGRMMGAVLIGETDLEETFENLILNQMNLSSYGEDLLDPNIDIEDYFA | binds | – |
| PYROXD1 F499A (enzyme, human, human PYROXD1 (UniProt Q8WU10) with F499A; source: E. coli BL21(DE3), purified (Glutathione Sepharose, 3C cleavage, SEC); not shown: GST, N-terminal, cleaved) MEAARPPPTAGKFVVVGGGIAGVTCAEQLATHFPSEDILLVTASPVIKAVTNFKQISKILEEFDVEEQSSTMLGKRFPNIKVIESGVKQLKSEEHCIVTEDGNQHVYKKLCLCAGAKPKLICEGNPYVLGIRDTDSAQEFQKQLTKAKRIMIIGNGGIALELVYEIEGCEVIWAIKDKAIGNTFFDAGAAEFLTSKLIAEKSEAKIAHKRTRYTTEGRKKEARSKSKADNVGSALGPDWHEGLNLKGTKEFSHKIHLETMCEVKKIYLQDEFRILKKKSFTFPRDHKSVTADTEMWPVYVELTNEKIYGCDFIVSATGVTPNVEPFLHGNSFDLGEDGGLKVDDHMHTSLPDIYAAGDICTTSWQLSPVWQQMRLWTQARQMGWYAAKCMAAASSGDSIDMDFSFELFAHVTKFFNYKVVLLGKYNAQGLGSDHELMLRCTKGREYIKVVMQNGRMMGAVLIGETDLEETFENLILNQMNLSSYGEDLLDPNIDIEDYAD | binds | – |
